Data taken from US11925667B2, “Engineered therapeutic probiotic system and method” (priority 2018, dated 2024).

Test system: C=CC/C(=N/OS(=O)(=O)O)S[C@@H]1O[C@H](CO)[C@@H](O)[C@H](O)[C@H]1O
Assay: Myrosinase activity assay (glucose release from sinigrin hydrolysis), TGG1
Type: biochemical, Arabidopsis thaliana
Method: Screening for improved β-thioglucosidase. The activity and stability of myrosinase, a β-thioglucosidase that hydrolyzes glucosinolate to sulforaphane, varies at differing pH and temperature; in a preferred embodiment the selected enzyme needs to function under physiological colorectal conditions. The healthy colon pH averages 6.6, while it is 7.0 and 6.7 in patients with adenoma and carcinoma, respectively. In addition, the temperature of the human intestinal tract ranges from 36° C. to 40° C. depending on the individual's metabolic state. In the illustrative example five plant-derived myrosinase orthologues with minimal glycosylation sites and the absence of the co-factor-binding sites using the BLAST search and the Enzyme Function Initiative-Enzyme Similarity Tool (EFI-EST), are compared to the well-characterized myrosinases from Brevicoryne brassicae (BMY1) and Arabidopsis thaliana (TGG1) (FIG. 2a and FIG. 7).
Gene cloning, protein expression and purification. Myrosinase genes are optimized for E. coli expression and cloned into the pET28b expression vector. The plasmids are transformed into E. coli BL21 (DE3) cultured in lysogeny broth (LB) (BD, Le Pont de Claix, France) at 37° C., 225 rpm to OD600 0.6 followed by 0.5 mM isopropyl β-D-1-thiogalactopyranoside (IPTG) induction at 16° C., 180 rpm for 16 hours. Cells are harvested, resuspended in lysis buffer (50 mM Tris-Cl, 300 mM NaCl, 10% glycerol, 1 mM dithiothreitol [DTT], pH 8.0) and lysed using Emulsiflex C-3 (Avestin). Expressed myrosinases are purified by IMAC Ni-NTA purification followed by Hi-Load Superdex 200 size exclusion column chromatography (GE, Uppsala, Sweden). The purified protein is concentrated and stored at −80° C. Pilot scale protein purification and enzymatic assay is conducted.
Myrosinase screening assay. The enzymatic reaction is measured for the release of glucose resulting from sinigrin hydrolysis. The reaction is conducted in sodium phosphate-buffered solution supplied in the Amplex® Red Glucose/Glucose Oxidase Assay Kit (Thermo Fisher Scientific, Geel, Belgium). The reaction buffer is prepared at different pH values (6.0, 6.5, 7.4 and 8.0) and at different reaction temperatures (34° C., 37° C., and 40° C.). The reaction is prepared using 0.1 μM purified myrosinase added to 1× Amplex® Red Glucose Assay reaction mixture and was kick-started with the corresponding concentration of sinigrin. The reaction can be measured at 560 nm absorbance and fluorescence (λex=540 nm, λem=590 nm) using a Synergy H1 Multi-Mode microtiter plate reader (BioTek®, Winooski, USA). The reaction initial velocity (VO) is determined and fitted into a Michaelis-Menten curve. Vmax and KM are determined by fitting into the Michaelis-Menten equation (Eq. 1) using GraphPad Prism Software. ^v=Vmax*[Sinigrin]/(KM+[Sinigrin]) (Eq.1)
Table S1|Myrosinase activity assay screening under various pH and temperature conditions (n=3 independent experiments, each measurement performed in triplicates; mean[…].).

## Arabidopsis thaliana myrosinase TGG1 (Arabidopsis thaliana)
other: pH 6.0, 37° C., pH 6.0, 37.0 °C
  Km: 361 ± 11 µM
other: pH 6.5, 37° C., pH 6.5, 37.0 °C
  Km: 198 ± 20 µM
other: pH 7.4, 34° C., pH 7.4, 34.0 °C
  Km: 78 ± 8 µM
other: pH 7.4, 37° C., pH 7.4, 37.0 °C
  Km: 71 ± 3 µM
other: pH 7.4, 40° C., pH 7.4, 40.0 °C
  Km: 88 ± 9 µM
other: pH 8.0, 37° C., pH 8.0, 37.0 °C
  Km: 137 ± 69 µM
